Laboratory results from patent publication US20230125561A1.

Target: SARS-CoV-2 Spike S1 protein, B.1.1.7 (UK (Kent)) variant (SARS-CoV-2) (UniProt P0DTC2)
Assay: ELISA
Details: designed binder

**Q.** With “Neumifil (HEX17: trimeric (hexavalent) form based on S. pneumoniae CBM40)” as the substance, how does the EC50 read?
**A.** 0.137 µg/mL
